This test deals with T1, biotin labeled hRAGE-Fc (human, UniProt Q15109 24-344, limits assumed, biotin labeled (site not stated)).
T1 construct: Biotinylated in selections and HTRF; also called Biotin-labeled RAGE-Fc; biotinylated RAGE-FC; not shown: Fc part, not described
Kind of test: HTRF competition on biotinylated hRAGE-Fc; scFv titrated; competitor Eu-cryptate-labeled parental XT-M4 antibody. (In TR-FRET formats the signal depends on donor and acceptor labels being close together.)

In patent US20100113304A1 (Pfizer, published 2010) one finds IC50 data, which are given here for 2 molecules.

T1 sequence (Q15109 24-344 limits assumed): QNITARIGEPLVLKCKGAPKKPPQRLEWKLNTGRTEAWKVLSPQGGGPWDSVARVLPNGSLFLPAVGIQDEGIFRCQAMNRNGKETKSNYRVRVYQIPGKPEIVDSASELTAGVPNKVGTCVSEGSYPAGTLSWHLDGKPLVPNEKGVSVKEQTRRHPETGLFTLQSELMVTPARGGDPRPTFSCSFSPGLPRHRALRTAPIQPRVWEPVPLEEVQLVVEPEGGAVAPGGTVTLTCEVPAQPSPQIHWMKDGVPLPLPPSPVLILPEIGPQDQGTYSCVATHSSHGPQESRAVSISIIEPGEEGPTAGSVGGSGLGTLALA

B1: 3B4 scFv (scFv)
chain: DIQMTQSPSSLSASVGDRVTITCRASQDVGIYVNWFQQKPGKAPRRLIYRATNLADGVPSRFSGSRSGTDFTLTISSLQPEDFATYYCLEFDEHPLTFGGGTKVEIKDGGGSGGGGSGGGGSSEVQLVESGGGLVQPGGSLRLSCAASGFTFNNYWMTWVRQAPGKGLEWVASIDNSGDNTYYPDSVKDRFTISRDNAKNSLYLQMNSLRAEDTAVYYCARGGDIREGLRYWGQGTLVTVSS
By IC50 is commonly meant the concentration that inhibits the measured activity by half. On to B1, for which the IC50 is 1.31 nM.

B2: 6D5 scFv (scFv)
chain: DIQMTQSPSSLSASVGDRVTITCRASQDVGIYVNWFQQKPGKAPRRLIYRATNLADGVPSRFSGSRSGTDFTLTISSLQPEDFATYYCLEFDEHPLTFGGGTKVEIKDGGGSGGGGSGGGGSSEVQLVESGGGLVQPGGSLRLSCAASGFTFNNYWMTWVRQAPGKGLEWVASIDNSGDNTYYPDSVKDRFTISRDNAKNSLYLQMNSLRAEDTAVYYCARGGDIKVSLDQWGQGTLVTVSS
Consider B2, for which the concentration for half-maximal inhibition (IC50) came to 1.46 nM.
